Data as given in the DeepSol protein solubility set.

Assay: soluble on expression in E. coli; label from the status in PepcDB or PDB records

Q: For “MAHHHHHHMGTLEAQTQGPGSMIFNVLTIFPQMFPGPLGVSNLGSALKKGLWTLNVFDIRAFANNKHNTVDDTPYGGGPGMLLRADVLGRCIDEVLSLHPNTKLMFTSPRGVSFTQDIARQTMNFDNITLLCGRFEGIDERVVDFYKLQEVSIGDYVLSGGELAAMVIIDTCVRMVPGVIGNAESLKQESMEGSLEYPQYTRPASWKGMEVPEVLLTGNHGEIEKWRRNASLSITAARRPDLLKDRYGENDVE”, which “soluble on expression in E. coli” value is on record?
A: soluble

Q: Which “soluble on expression in E. coli” value does the source give for “SSPFLYLVLLVLGLHATIHCASPEGKVTACHSSQPNATLYKMSSINADFAFNLYRRFTVETPDKNIFFSPVSISAALVMLSFGACCSTQTEIVETLGFNLTDTPMVEIQHGFQHLICSLNFPKKELELQIGNALFIGKHLKPLAKFLNDVKTLYETEVFSTDFSNISAAKQEINSHVEMQTKGKVVGLIQDLKPNTIMVLVNYIHFKAQWANPFDPSKTEDSSSFLIDKTTTVQVPMMHQMEQYYHLVDMELNCTVLQMDYSKNALALFVLPKEGQMESVEAAMSSKTLKKWNRLLQKGWVDLFVPKFSISATYDLGATLLKMGIQHAYSENADFSGLTEDNGLKLSNAAHKAVLHIGEKGTEAAAVPEVELSDQPENTFLHPIIQIDRSFMLLILERSTRSILFLGKVVNPTEA” here?
A: not soluble

Q: For “MSLIIQVSPAGSMDLLSQLEVERLKKTASSDLYQLYRNCSLAVLNSGSHTDNSKELLDKYKNFDITVMRRERGIKLELANPPEHAFVDGQIIKGIQEHLFSVLRDIVYVNMHLADSQRLNLTNATHITNLVFGILRNAGALIPGATPNLVVCWGGHSINEVEYQYTREVGHELGLRELNICTGCGPGAMEGPMKGAAVGHAKQRYSEYRYLGLTEPSIIAAEPPNPIVNELVIMPDIEKRLEAFVRMAHGIIIFPGGPGTAEELLYILGIMMHPENADQPMPIVLTGPKQSEAYFRSLDKFITDTLGEAARKHYSIAIDNPAEAARIMSNAMPLVRQHRKDKEDAYSFNWSLKIEPEFQLPFEPNHESMANLDLHLNQRPEVLAANLRRAFSGVVAGNVKAEGIREIERHGPFEMHGDPVLMKKMDQLLNDFVAQNRMKLPGGSAYEPCYKIVTEGHHHHHH”, which “soluble on expression in E. coli” value is on record?
A: soluble

Q: Which “soluble on expression in E. coli” value does the source give for “MTEILQTLKEYIPISLEEMSGIKLMNRTDTKYVTSYQILKEILLAAGHDYRVQEVNGEYNIAYHTIYLDTADRDMYLTHQNGRVVREKIRIRTYVDSDLTFLEVKNKNNKGRTDKKRIRIGSIDTIKEDGGEAFLRQHAWYEQSQLLPLLENSFRRITLVNKHKTERLTIDTGVTFCCLQSGKISSLDNIVIIELKRDGHNSSPIKEILRKLHIQSSGFSKYCIGSALTVSHLKCNRLKPKLRMLNKMGVY” here?
A: not soluble

Q: With “MSLKMQEPIEDPLSKLTQYSGKTFVIKYGGSIMKNKKAEEAFIKDVKYLRKLGINIVIVHGGGPEISRWLELSGIESRFVDGLRVTDEKVIEIVQMVLSGKINKKLSLQFNIDGVNAVGLSGVDNKLIEATKKYVYKGNETIDIGYVGKVTKVNSEFIKELLKGGQVPVIAPIGCDNKGNVYNINADYAAAFISSALDAEKLIILTDVEGVYRNINDPQSIIHEIDIKDVNYYIKEEIIKGGMIPKVQCCASAIENGTKNVQLIDGRNDHCLINDILNYRGTIISYRSGVKCQKAIEGHHHHHH” as the sequence, how does the “soluble on expression in E. coli” value read?
A: soluble

Q: Which “soluble on expression in E. coli” value does the source give for “MQVIIISGLSGSGKSIALKVLEDSGYYCVDNLPASLLVVLINHLQTQQHAYVAVAIDMRSGENITVLPWQLKMIDKSIQIKFIFLEARTETLMQRFSETRRRHPLSDKNITLEEAIRREREALATLTGLGHHIDTSSLRPNVLRAFIKDFIADSRSPSQLTLLFQSFGYKHGIPLDADLVFDIRCLPNPFYDPQLKELTGHDPEVIRFMESQPDASKMLRDISSFLGTWLPAYIRDNRAYLTVAIGCTGGQHRSVYFAEKLALHFHDSAHVLVRHRGLAEYKPHYARR” here?
A: not soluble

Q: Which “soluble on expression in E. coli” value does the source give for “MGSDKIHHHHHHMQSIVQTNFTGIDGLIIRNEPRPALTDNGVLIAMETLPVVPSDWHKETDPNATAEQALQLPRVIGIGGVGTVIEVGHNRDQKLLHQRVLVMHPKGSYQEFILNTNSDWLFPLPINVSNAEAATLTAGPGVALALTEFIKQNPSDHLVITGANSVIGLILCQLLGSTYPGLTPIVSPDSQAYFNQSLPGYPVYSIEHLQLFHGRTLIIDIAGSEPLLQQLIAAVPRASIASIALQTSNLNVPFTFVHEDFNHQIYCHLIKTVASHKLWLPIGRIFSFAETKKAQHYAKDHHSRGRVLVNLN” here?
A: not soluble

Q: For “MPRSLANAPIMILNGPNLNLLGQRQPEIYGSDTLADVEALCVKAAAAHGGTVDFRQSNHEGELVDWIHEARLNHCGIVINPAAYSHTSVAILDALNTCDGLPVVEVHISNIHQREPFRHHSYVSQRADGVVAGCGVQGYVFGVERIAALAGAGSARA”, which “soluble on expression in E. coli” value is on record?
A: soluble

Q: With “MGSDKIHHHHHHMTYELSTDREFDLIAIGRACIDLNAVEYNRPMEETMTFSKYVGGSPANIVIGSSKLGLKAGFIGKIADDQHGRFIESYMRGVGVDTSNLVVDQEGHKTGLAFTEIKSPEECSILMYRQDVADLYLSPEEVNEAYIRRSKLLLVSGTALSKSPSREAVLKAIRLAKRNDVKVVFELDYRPYSWETPEETAVYYSLVAEQSDIVIGTREEFDVLENRTEKGDNDETIRYLFKHSPELIVIKHGVEGSFAYTKAGEAYRGYAYKTKVLKTFGAGDSYASAFLYALISGKGIETALKYGSASASIVVSKHSSSDAMPSVEEIEALIEKDETITIA” as the sequence, how does the “soluble on expression in E. coli” value read?
A: not soluble

Q: Which “soluble on expression in E. coli” value does the source give for “MPHFYEYLEFNRDEDREHQLDVYVGVQLEADTIAKITALETASEWLIMAEPYCPDCVEVVAYFQRISQLNPAINVKYVARKDNTQRHYFDSDRQQQAVIAVEKIPAIFNISSAETELVLAEFPAFLKAEMAEHPMQFDALKADFRMGKFGKRLEAELVEILTR” here?
A: not soluble

Q: For “MSIKIKNAVEIEKMRVAGRLAAEVLEMIEPHVKAGVTTEELDQICHKYITEVQGAIPAPLNYHGFPKSICTSINHIVCHGIPASEDTYFGQIQRPAVLRDGDILNIDITVIKDGYHGDTSKMFLIGDVSIEDKRLCHVAQECLYLALKQVKPGVQLGEIGTTIEKHIKTNNKNNPRFKFSIVRDYCGHGIGAEFHEEPQVVHYKNSDRTVLREGMIFTIEPMINAGKFGCRLDDEDSWTVYTADGKKSAQWEHTILVTATGCEILTLRSEESLPRILNNA”, which “soluble on expression in E. coli” value is on record?
A: not soluble

Q: With “MGSDKIHHHHHHMLFFINLTLKRGLTTLLENANATINPGQKVGLVGKNGCGKSSLFALLKNEMSAEGGEMSFPPNWALAWVNQETPSLDCRAIDYVIQGDREYSRLQQVLQQANTANDGNAIAVLHNQLDAIDAWTIEARAGELLHGLGFTQAELEQPVKAFSGGWRMRLNLAQALICRSDLLLLDEPTNHLDLDAVIWLERWLKQYPGTLILISHDRDFLDPIVGKILHIEQQKLNEYTGDYSSFEQQRATKLAQQNAMYRQQQLKIDHLQRYIDRFKAKATKAKQAQSRIKALERMEKIAPAYVDNPFHFEFREPLSLPNPLLMMENASVGYGEGEKSAVEILSKIKLNLVPGSRIGLLGKNGAGKSTLIKLLAGEIAPTGGTIQLAKGVQLGYFVQHQLDTLRADESALWHLQKIAPQQTEQQLRDYLGGFAFHGDKVNQPVASFSGGEKARLVLALIVWQRPNLLLLDEPTNHLDFRYASGVNGSLGGLSGLFGVGVARSPFIA” as the sequence, how does the “soluble on expression in E. coli” value read?
A: not soluble

Q: With “MVQTVLNSVWLWRSVLLRLTFSDSGSFLGQSFLLFSSGFWSVLVEQLEGFSSGVSVQSVLELSNGWRNLQSDGQDLLLSLQSDIFWPFDVSGQVSLWLDSLANTEVLWSRVSQWVLSLVRLSGLSTEWSWSNFLTWSHLFFQLSCSLY” as the sequence, how does the “soluble on expression in E. coli” value read?
A: soluble

Q: Which “soluble on expression in E. coli” value does the source give for “MLKKILLSLVVFYQRFISPLTPPTCRFYPTCSQYTREAIEYHGALKGLYLGVRRILKCHPLHKGGFDPVPLKKDKNSKTTHHHLEHHHHHH” here?
A: not soluble

Q: With “MVKSIENVKLTKGLFYNSQKKGNDVILALDIDRLLAPYYEAANLPPKKRSYGGWEEREIRGHSLGHWLSAAAAMYETTGDKALLERIDRAVQELATIQDDVGYVGGVKRAHFDEMFSGEFQVGHFNIAGTWVPWYNLHKLFAGLIDVHQLTGHSLALTVVTKLADWAKKGTDQLTDDQFQRMLICEHGGMNEAMADLYTLTGHKDYLQLAIRFCHWAVLEPLANGIDELEGKHANTQIPKVIGAAKLFEITGDDTYRAIAEFFWRQVTNDRSYIIGGNSNSEHFGPANKETLGVETAETCNTYNMLKLTEHLFRWNRSSQLMDYYEKALYNHILASQDPDSGMKTYFVSLQPGHFKVYSSLEESFWCCFGTGLENPARYTRTIYDRDDRHIYVNLFMASEIHLKDLQVQIRQETNFPETDRTKLTFVKADGVSIKLHIRVPEWVAGPVTARINGKETFSESGADYLTIEREWQKGDEIEVHLPMELRIYEAKDDSHKVGIMYGPIVLAGTFGKDHFPLEHHHHHH” as the sequence, how does the “soluble on expression in E. coli” value read?
A: not soluble

Q: Which “soluble on expression in E. coli” value does the source give for “GSHMQSYQISSRLMAQEGQRTSVQTSSLIQSLFDFRLAALRIHQDSTAKNASLINALVSRDSSRLDEFFSSVDELELSNAPDLRFISSHDNILWDDGNASFYGIAQQELNKLIRRVAISGNWHLVQTPSEGKSVHILMRRSSLIEAGTGQVVGYLYVGIVLNDNFALLENIRSGSNSENLVLAVDTTPLVSTLKGNEPYSLDYVVHSAKDAMRDSFIVGQTFLEVESVPTYLCVYSIQTNQNVLTLRDNESVPTYLCVYSIQTNQNVRHQ” here?
A: soluble

Q: For “MGSDKIHHHHHHMPTIHFVDGEKGGVGKSLFARTMIQYCLDKRIPFVPVETDRSNPDVAGVYKEICKYAVFSENERQANKADRIFEWAIERPVIVNLAAQSHRAVQGWIESNQLLELGSSQGVMFCKWFISTGGYDSINLFTQSVNTYGEKIPHILVRNLGLCDDWEHLESDSNFQNIVNKYQIKVIDFPKLAYRERNIIDQNRLTFAEAREYKEFGIIGKQRVVNFLKLAYGAFEKVGIWYEKVE”, which “soluble on expression in E. coli” value is on record?
A: not soluble

Q: With “MGSDKIHHHHHHMFPTFFGISSIHGGQMAHSVSQAYLHISPPQVIGCHDGTTFNSYTNDDSARRYNSKSANKAPPAGQAFGCHESTTFKRTQQVNTPLDVIHPNSNIPNLPPPAFGKCPYPPWQHLDAANTIFIFPPLTVTLITNSRRVSAAAYDSNAIESVMQGTLRKMRTRLDEQGLANYQLLVGDNEVELNPFIGSSIKLVHTGNIFCCNCGKKTKKSYSQGHCFVCMKKLASCDMCIMKPETCHFAEGTCREPEWGEANCFVPHYVYLSNTSGLKVGITRHTQLPTRWIDQGATQGLPILKVSSRQLSGLIEVELAKMIADKTNWRAMLKGNADPLPLKQHAEELLPQIEQHIHSLAMAHGEYAIERLNEEIVAIDYPVSEFPTKIASHNFDKDPVVSGTLLGIKGQYLIFDTGVINLRKFTAYEVSFEAE” as the sequence, how does the “soluble on expression in E. coli” value read?
A: not soluble

Q: For “KHLPEPFRIRVIEPVKRTTRAYREEAIIKSGMNPFLLDSEDVFIDLLTDSGTGAVTQSMQAAMMRGDEAFSGSRSYYALAESVKNIFGYQYTIPTHQGRGAEQIYIPVLIKKREQEKGLDRSKMVAFSNYFFDTTQGHSQINGCTVRNVYIKEAFDTGVRYDFKGNFDLEGLERGIEEVGPNNVPYIVATITSNSAGGQPVSLANLKAMYSIAKKYDIPVVMDSARFAENAYFIKQREAEYKDWTIEQITRETYKYADMLAMSAKKDAMVPMGGLLCMKDDSFFDVYTECRTLCVVQEGFPTYGGLEGGAMERLAVGLYDGMNLDWLAYRIAQVQYLVDGLEEIGVVCQQAGGHAAFVDAGKLLPHIPADQFPAQALACELYKVAGIRAVEIGSFLLGRDPKTGKQLPCPAELLRLTIPRATYTQTHMDFIIEAFKHVKENAANIKGLTFTYEPKVLRHFTAKLKEV”, which “soluble on expression in E. coli” value is on record?
A: soluble

Q: For “FPDILDNRIEKMSSCFKQAAEEYGYKAENFIIYPIKVNQMRPVVEEIISHGKKFNLGLEAGSKPELHAVIAVNTDSDSLIVCNGYKDESYIELALLAQKMGKRIFLVVEKMNELKLIAKMAKQLNVQPNIGIRIKLASSGSGKWEESGGDASKFGLTSSELLEALDFMESKGLKDCLKLIHFHIGSQVTKIRRIKTALREASQFYVQLHSMGFNVEFVDIGGGLGVDYDGTRSSNSEGSVNYSIQEYVNDSISTLVDVSDKNGIPHPNIITESGRALTAH”, which “soluble on expression in E. coli” value is on record?
A: soluble
